From the supplement of paper PMC9112550, “Optimization of the antimicrobial peptide Bac7 by deep mutational scanning” (BMC Biology, 2022)

The sequences below were run on Escherichia coli TOP10 (assay: shrunken log2 fold change of peptide-encoding DNA abundance (4.5 h post-induction vs induction); higher = less antimicrobial activity (less host growth inhibition)). Conditions: time post-induction: 4.5 h; library: site-saturation at positions 5, 18, 19, 20.
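Note: peptides expressed intracellularly from a pBAD plasmid library in pooled LB shake-flask culture, induced with 0.3% L-arabinose, DNA abundance read by NGS, three biological replicates, DESeq2 with apeglm shrinkage.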

Row | Sequence | shrunken log2 fold change
1 | RRIRIRPPRLPRPRPRPMVGPRP | 0.105
2 | RRIRDRPPRLPRPRPRPHNEPRP | -0.701
3 | RRIRGRPPRLPRPRPRPALYPRP | 0.363
4 | RRIRERPPRLPRPRPRPIEDPRP | -0.199
5 | RRIRNRPPRLPRPRPRPSMTPRP | 0.0898
6 | RRIRRRPPRLPRPRPRPGHIPRP | -0.116
7 | RRIRLRPPRLPRPRPRPIEGPRP | 0.0046
8 | RRIRGRPPRLPRPRPRPAEFPRP | 0.69
9 | RRIRERPPRLPRPRPRPCWAPRP | 0.00771
10 | RRIRGRPPRLPRPRPRPCMHPRP | 0.363
11 | RRIRVRPPRLPRPRPRPNFCPRP | -0.139
12 | RRIRERPPRLPRPRPRPLQVPRP | -0.384
13 | RRIRNRPPRLPRPRPRPVYKPRP | -0.453
14 | RRIRIRPPRLPRPRPRPMCQPRP | 0.0317
15 | RRIRVRPPRLPRPRPRPASYPRP | 0.0708
16 | RRIRERPPRLPRPRPRPCFQPRP | -0.25
17 | RRIRWRPPRLPRPRPRPISCPRP | -0.0467
18 | RRIRRRPPRLPRPRPRPGSKPRP | -0.0919
19 | RRIRNRPPRLPRPRPRPVKHPRP | -0.23
20 | RRIRHRPPRLPRPRPRPHCRPRP | 0.0364
21 | RRIRPRPPRLPRPRPRPSIVPRP | -0.662
22 | RRIRNRPPRLPRPRPRPPGHPRP | 0.463
23 | RRIRKRPPRLPRPRPRPGCDPRP | 0.826
24 | RRIRFRPPRLPRPRPRPKKWPRP | 0.187
25 | RRIRVRPPRLPRPRPRPHCYPRP | -0.234

Row | Sequence | shrunken log2 fold change
26 | RRIRSRPPRLPRPRPRPFEIPRP | 0.0385
27 | RRIRVRPPRLPRPRPRPHMWPRP | -0.49
28 | RRIRTRPPRLPRPRPRPCNDPRP | -0.145
29 | RRIRARPPRLPRPRPRPECVPRP | 1.07
30 | RRIRQRPPRLPRPRPRPMTQPRP | -0.0451
31 | RRIRIRPPRLPRPRPRPYPQPRP | -0.974
32 | RRIRKRPPRLPRPRPRPIYHPRP | -0.472
33 | RRIRKRPPRLPRPRPRPTRRPRP | 0.964
34 | RRIRSRPPRLPRPRPRPLALPRP | -0.107
35 | RRIRKRPPRLPRPRPRPSVLPRP | 0.0575
36 | RRIRHRPPRLPRPRPRPVILPRP | -1.12
37 | RRIRFRPPRLPRPRPRPQCKPRP | -0.422
38 | RRIRKRPPRLPRPRPRPYNLPRP | -0.119
39 | RRIRNRPPRLPRPRPRPTVEPRP | 0.0287
40 | RRIRQRPPRLPRPRPRPAEQPRP | -0.000243
41 | RRIRPRPPRLPRPRPRPGSWPRP | 0.941
42 | RRIRLRPPRLPRPRPRPFVRPRP | 0.00108
43 | RRIRTRPPRLPRPRPRPFDMPRP | -0.00208
44 | RRIRVRPPRLPRPRPRPDYFPRP | -0.163
45 | RRIRSRPPRLPRPRPRPDQDPRP | 0.142
46 | RRIRVRPPRLPRPRPRPDRRPRP | 0.206
47 | RRIRCRPPRLPRPRPRPSTIPRP | 0.255
48 | RRIRSRPPRLPRPRPRPQEQPRP | 0.0984
49 | RRIRHRPPRLPRPRPRPAHAPRP | -0.0771
50 | RRIRGRPPRLPRPRPRPNLQPRP | 0.347

Row | Sequence | shrunken log2 fold change
51 | RRIRERPPRLPRPRPRPENLPRP | -0.226
52 | RRIRTRPPRLPRPRPRPPIRPRP | -0.1
53 | RRIRLRPPRLPRPRPRPWARPRP | 0.482
54 | RRIRQRPPRLPRPRPRPSAPPRP | 0.175
55 | RRIRYRPPRLPRPRPRPRTRPRP | -0.0272
56 | RRIRMRPPRLPRPRPRPHGSPRP | 0.0248
57 | RRIRQRPPRLPRPRPRPIIDPRP | -0.199
58 | RRIRYRPPRLPRPRPRPYLWPRP | -0.777
59 | RRIRGRPPRLPRPRPRPGQKPRP | 0.494
60 | RRIRHRPPRLPRPRPRPPNQPRP | -0.0151
61 | RRIRWRPPRLPRPRPRPMMAPRP | 0.452
62 | RRIRTRPPRLPRPRPRPCSKPRP | -0.074
63 | RRIRQRPPRLPRPRPRPEIAPRP | -0.151
64 | RRIRKRPPRLPRPRPRPKCDPRP | 0.405
65 | RRIRTRPPRLPRPRPRPILMPRP | -0.306
66 | RRIRPRPPRLPRPRPRPWREPRP | -0.00316
67 | RRIRKRPPRLPRPRPRPGFMPRP | 0.184
68 | RRIRERPPRLPRPRPRPSTAPRP | -0.151
69 | RRIRVRPPRLPRPRPRPIEFPRP | 0.0379
70 | RRIRTRPPRLPRPRPRPAIHPRP | -0.384
71 | RRIRVRPPRLPRPRPRPPEDPRP | 0.425
72 | RRIRVRPPRLPRPRPRPFDDPRP | -0.175
73 | RRIRCRPPRLPRPRPRPQAIPRP | -0.205
74 | RRIRTRPPRLPRPRPRPVRQPRP | 0.264
75 | RRIRGRPPRLPRPRPRPNVCPRP | -0.237

Row | Sequence | shrunken log2 fold change
76 | RRIRWRPPRLPRPRPRPMNKPRP | -0.267
77 | RRIRARPPRLPRPRPRPCEQPRP | 0.233
78 | RRIRVRPPRLPRPRPRPTAPPRP | 0.175
79 | RRIRDRPPRLPRPRPRPTEPPRP | 0.185
80 | RRIRWRPPRLPRPRPRPVAWPRP | 0.489
81 | RRIRERPPRLPRPRPRPIPTPRP | 0.0239
82 | RRIRVRPPRLPRPRPRPGAKPRP | 0.189
83 | RRIRKRPPRLPRPRPRPTAFPRP | 0.355
84 | RRIRIRPPRLPRPRPRPPNTPRP | -0.464
85 | RRIRERPPRLPRPRPRPWFMPRP | -0.688
86 | RRIRARPPRLPRPRPRPNFFPRP | 0.349
87 | RRIRYRPPRLPRPRPRPQTSPRP | -1.22
88 | RRIRGRPPRLPRPRPRPFWPPRP | 0.653
89 | RRIRCRPPRLPRPRPRPHNMPRP | -0.82
90 | RRIRMRPPRLPRPRPRPQTFPRP | -0.0186
91 | RRIRYRPPRLPRPRPRPGVFPRP | -0.0987
92 | RRIRYRPPRLPRPRPRPRELPRP | -0.0942
93 | RRIRERPPRLPRPRPRPGGNPRP | -0.442
94 | RRIRRRPPRLPRPRPRPNPLPRP | 0.269
95 | RRIRARPPRLPRPRPRPSMHPRP | 0.163
96 | RRIRGRPPRLPRPRPRPFAKPRP | 0.479
97 | RRIRCRPPRLPRPRPRPNHKPRP | -0.862
98 | RRIRIRPPRLPRPRPRPTYWPRP | -0.421
99 | RRIRFRPPRLPRPRPRPLFEPRP | -0.0359
100 | RRIRMRPPRLPRPRPRPPSPPRP | 1.57

Row | Sequence | shrunken log2 fold change
101 | RRIRARPPRLPRPRPRPIGGPRP | -0.0402
102 | RRIRWRPPRLPRPRPRPTSAPRP | 0.389
103 | RRIRYRPPRLPRPRPRPERSPRP | -0.00131
104 | RRIRCRPPRLPRPRPRPHEHPRP | 1.94
105 | RRIRSRPPRLPRPRPRPRMTPRP | 0.251
106 | RRIRRRPPRLPRPRPRPYMNPRP | -0.621
107 | RRIRGRPPRLPRPRPRPFAFPRP | 0.531
108 | RRIRKRPPRLPRPRPRPSMWPRP | 1.63
109 | RRIRARPPRLPRPRPRPKGAPRP | 0.514
110 | RRIRPRPPRLPRPRPRPDFWPRP | 0.527
111 | RRIRLRPPRLPRPRPRPPTTPRP | 0.449
112 | RRIRMRPPRLPRPRPRPEYNPRP | 0.25
113 | RRIRHRPPRLPRPRPRPYVLPRP | -0.14
114 | RRIRVRPPRLPRPRPRPKPGPRP | 0.507
115 | RRIRGRPPRLPRPRPRPHNFPRP | 0.0511
116 | RRIRLRPPRLPRPRPRPKKHPRP | -0.154
117 | RRIRKRPPRLPRPRPRPTVDPRP | -0.108
118 | RRIRCRPPRLPRPRPRPTEAPRP | 0.425
119 | RRIRCRPPRLPRPRPRPQYTPRP | -0.946
120 | RRIRHRPPRLPRPRPRPGICPRP | -0.154
121 | RRIRLRPPRLPRPRPRPMTSPRP | 0.142
122 | RRIRRRPPRLPRPRPRPTGQPRP | 0.675
123 | RRIRTRPPRLPRPRPRPDSKPRP | 0.0427
124 | RRIRVRPPRLPRPRPRPPLNPRP | -0.098
125 | RRIRRRPPRLPRPRPRPCSQPRP | 0.0499

Row | Sequence | shrunken log2 fold change
126 | RRIRSRPPRLPRPRPRPMELPRP | -0.187
127 | RRIRPRPPRLPRPRPRPKSWPRP | 0.258
128 | RRIRKRPPRLPRPRPRPESGPRP | 0.918
129 | RRIRARPPRLPRPRPRPTLKPRP | 0.605
130 | RRIRFRPPRLPRPRPRPNSAPRP | -0.603
131 | RRIRPRPPRLPRPRPRPCQVPRP | -0.132
132 | RRIRVRPPRLPRPRPRPEDPPRP | 0.476
133 | RRIRDRPPRLPRPRPRPTATPRP | 2.57
134 | RRIRDRPPRLPRPRPRPCYNPRP | -0.271
135 | RRIRFRPPRLPRPRPRPYEKPRP | -0.075
136 | RRIRCRPPRLPRPRPRPPKAPRP | -0.112
137 | RRIRNRPPRLPRPRPRPFYQPRP | -0.8
138 | RRIRCRPPRLPRPRPRPNMHPRP | -0.615
139 | RRIRCRPPRLPRPRPRPTSFPRP | -0.306
140 | RRIRGRPPRLPRPRPRPDWWPRP | 0.937
141 | RRIRNRPPRLPRPRPRPAISPRP | -0.128
142 | RRIRIRPPRLPRPRPRPRVVPRP | 0.00259
143 | RRIRWRPPRLPRPRPRPTATPRP | 0.528
144 | RRIRRRPPRLPRPRPRPDQMPRP | -0.0181
145 | RRIRPRPPRLPRPRPRPHYSPRP | -0.167
146 | RRIRTRPPRLPRPRPRPDKLPRP | 0.0136
147 | RRIRRRPPRLPRPRPRPYGSPRP | -0.00192
148 | RRIRARPPRLPRPRPRPPLTPRP | 0.536
149 | RRIRYRPPRLPRPRPRPPMWPRP | 0.53
150 | RRIRMRPPRLPRPRPRPVMAPRP | 0.266
